The record followed here is patent US12692524B2, “Sialyltransferases and their use in producing sialylated oligosaccharides” (Chr. Hansen A/S, priority 2017, dated 2026).

A short description of assay [1]: In vitro sialylation of LNT by protein extracts, LST-a/-b quantified by LC-MS/MS. The format is biochemical. Particulars: for Relative efficacy of sialyltransferases regarding in-vitro production of sialyllacto-N-tetraoses: LST-b / Relative efficacy of sialyltransferases regarding in-vitro production of sialyllacto-N-tetraoses: LST-a: 5 mM LNT, 10 mM CMP-Neu5Ac, 16 hours, LC-MS/MS, relative quantity, n.d.: not detectable. The protocol:
Escherichia coli BL21(DE3) harbouring plamids encoding for 100 sialyltransferases were grown at 30° C. in 100 ml shake flasks filled with 20 ml of 2YT medium supplemented with ampicillin 100 μg ml^−1. When the cultures reached an OD600 of 0.1 to 0.3, gene expression was induced by addition of 0.3 mM IPTG and the incubation was continued for 12 to 16 hours. Cells were harvested by centrifugation and mechanically disrupted in a defined volume of 50 mM Tris-HCl pH7.5 using glass beads. The protein extract was kept on ice until the assay started. The in vitro assay was carried out in a total volume of 25 μl including 50 mM Tris-HCl pH7.5, 5 mM MgCl2, 10 mM CMP-Neu5Ac and 5 mM LNT. The assay started with the addition of 3 μl protein extract and continued for 16 hours. Product formation was determined by mass spectrometry.
Mass spectrometry analysis was performed by MRM (multiple reaction monitoring) using a LC Triple-Quadrupole MS detection system. Precursor ions are selected and analyzed in quadrupole 1, fragmentation takes place in the collision cell using argon as CID gas, selection of fragment ions is performed in quadrupole 3. Chromatographic separation of lactose, 3′-Sialyllactose and 6′-Sialyllactose after dilution of culture supernatant 1:100 with H2O (LC/MS Grade), was performed on a XBridge Amide HPLC column (3.5 μm, 2.1×50 mm (Waters, USA) with a XBridge Amide guard cartridge (3.5 μm, 2.1×10 mm) (Waters, USA). Column oven temperature of the HPLC system was 50° C. The mobile phase was composed of acetonitrile:H2O with 10 mM ammonium acetate. A 1 μl sample was injected into the instrument; the run was performed for 3.60 min with a flow rate of 400 μl/min. 3′-Sialyllactose and 6′-Sialyllactose were analyzed by MRM in ESI positive ionization mode. The mass spectrometer was operated at unit resolution. Sialyllactose forms an ion of m/z 656.2 [M+Na]. The precursor ion of Sialyllactose was further fragmented in the collision cell into the fragment ions m/z 612.15, m/z 365.15 and m/z 314.15. Collision energy, Q1 and Q3 Pre Bias were optimized for each analyte individually. Chromatographic separation of lactose, LNT-II, LNT and LST-a or -b after dilution of particle-free biocatalysis-reaction or crude extract, respectively, 1:50 with H2O (LC/MS Grade), was performed on a XBridge Amide HPLC column (3.5 μm, 2.1×50 mm (Waters, USA) with a XBridge Amide guard cartridge (3.5 μm, 2.1×10 mm) (Waters, USA). Column oven was run at 35° C. The mobile phase was composed of acetonitrile:H2O with 0.1% ammonium hydroxide. A 1 μl sample was injected into the instrument; the run was performed for 3.50 min with a flow rate of 300 μl/min. Lactose, LNT-II, LNT as well as LST-a and -b were analyzed by MRM in ESI negative ionization mode. The mass spectrometer was operated at unit resolution. Lactose forms an ion of m/z 341.00 [M−H]. The precursor ion of Lactose was further fragmented in the collision cell into the fragment ions m/z 179.15, m/z 161.15 and m/z 101.05. LNT-II forms an ion of m/z 544.20 [M−H]. The precursor ion of LNT-II was further fragmented into the fragment ions m/z 382.10, m/z 161.00 and m/z 112.90. LNT forms an ion of m/z 706.20 [M−H]. The precursor ion of LNT was further fragmented into the fragment ions m/z 382.10, m/z 202.10 and m/z 142.00. LST-a and -b forms an ion of m/z 997.20 [M−H]. The precursor ion of LST-a and-b was further fragmented into the fragment ions m/z 290.15, m/z 202.15 and m/z 142.15. Collision energy, Q1 and Q3 Pre Bias were optimized for each analyte individually. Quantification methods were established using commercially available standards (Carbosynth, Compton, UK).
Twenty eight genes were identified to produce LST-a whereas only 6 enzymes synthesized LST-b. […] Irrespectively of the protein overexpression level, sialyltransferases that produced best were selected for determination of Km and Vmax.

Assay [2] can be described thus: In vivo screening in E. coli #1363/#1730 with lactose as acceptor, sialyllactose identified by TLC. The format is cell-based, Escherichia coli BL21(DE3). Particulars: for Described activity confirmed in the lactose screening: in words. The protocol: Escherichia coli BL21(DE3) #1363 and #1730 harbouring plasmids encoding for 100 sialyltransferases were grown at 30° C. in 100 ml shake flasks filled with 20 ml of mineral salts medium (Samain et al., J. Biotech. 1999, 72:33-47) supplemented with 2% (wt/vol) glucose, ampicillin 100 μg ml^−1, kanamycin 15 μg ml^−1 and zeocin 40 μg ml^−1. When the cultures reached an OD600 of 0.1 to 0.3, gene expression was induced by addition of 0.3 mM IPTG. After an incubation for one hour, 1.5 mM lactose was added to #1363 cultures whereas 1.5 mM lactose as well as 1.5 mM sialic acid was added to #1730 cultures. The incubation continued for 72 to 96 hours. Then, cells were harvested by centrifugation and mechanically disrupted in a defined volume using glass beads. Subsequently, samples were applied to thin layer chromatography (TLC) on Silica Gel 60 F254 (Merck KGaA, Darmstadt, Germany). A mixture of butanol:acetone:acetic acid:H2O (35/35/7/23 (v/v/v/v)) was used as mobile phase. For detection of the separated substances, the TLC plate was soaked with thymol reagent (0.5 g thymol solved in 95 ml ethanol, 5 ml sulfuric acid added) and heated.
In the entire screening, thirty two genes were identified to encode for α-2,3-sialyltransferases, thus producing 3′-SL. 19 enzymes synthesized 6′-SL and were depicted as α-2,6-sialyltransferases. An α-2,3- as well as an α-2,6-sialyltransferase activity could only be observed for 3 enzymes. […] The screening appeared highly accurate since the described activities of extensively characterized sialyltransferases, e. g. […] Regarding the product formation, the experimental setting allowed a semi-quantitative comparison of the screened enzymes. But to achieve deeper knowledge about their kinetic properties, the 3 potentially best performing α-2,3- and α-2,6-sialyltransferases were applied to in vitro assays.

B1: SiaT5: sialyltransferase of Helicobacter acinonychis, acc. NC_008229, SEQ ID NO: 33 (protein, listed as Heliobacter acinonychis)
chain: MGTIKKPLIIAGNGPSIKDLDYALFPKDFDVFRCNQFYFEDKYYLGREIKGVFFNPCVLSSQMQTVQYLMDNGEYSIERFFCSVSTDRHDFDGDYQTILPVDGYLKAHYPFVCDTFSLFKGHEEILKHVKYHLKTYSKELSAGVLMLLSAVVLGYKEIYLVGIDFGASSWGHFYDESQSQHFSNHMADCHNIYYDMLTICLCQKYAKLYALAPNSPLSHLLTLNPQAKYPFELLDKPIGYTSDLIISSPLEEKLLEFKNIEEKLLEFKNIEEKLLEFKNIEEKLLEFKNIEEKLLEFKNIEEKLLEFKNIEEKLLEFKNIEEKLLEFKNIEEKLLEFKNIEEKLLEFKNIEEKLLEFKNIEEKLLEFKNIEEKLLEFKNIEEKLLASRLNNILRKIKRKILPFFWGGGVTPTLKVSFRWGAA
Consider B1, for which the “Relative efficacy of sialyltransferases regarding in-vitro production of sialyllacto-N-tetraoses: LST-b” value in assay [1] is reported as 1.

B2: SiaT1: sialyltransferase of Neisseria meningitidis, acc. U60660, SEQ ID NO: 5 (protein, listed as Neisseria meningitidis)
chain: MGLKKACLTVLCLIVFCFGIFYTFDRVNQGERNAVSLLKEKLFNEEGEPVNLIFCYTILQMKVAERIMAQHPGERFYVVLMSENRNEKYDYYFNQIKDKAERAYFFHLPYGLNKSFNFIPTMAELKVKSMLLPKVKRIYLASLEKVSIAAFLSTYPDAEIKTFDDGTGNLIQSSSYLGDEFSVNGTIKRNFARMMIGDWSIAKTRNASDEHYTIFKGLKNIMDDGRRKMTYLPLFDASELKTGDETGGTVRILLGSPDKEMKEISEKAAKNFKIQYVAPHPRQTYGLSGVTTLNSPYVIEDYILREIKKNPHTRYEIYTFFSGAALTMKDFPNVHVYALKPASLPEDYWLKPVYALFTQSGIPILTFDDKN
Consider B2, for which, in assay [1], the “Relative efficacy of sialyltransferases regarding in-vitro production of sialyllacto-N-tetraoses: LST-a” value (from here on “Relative efficacy … LST-a”) is given as 2.98 × 10^3. Also, the “Described activity to sialylate LNT verified” value in assay [1] (in words) was “could be verified”. In assay [2] (1.5 mM lactose, 72 to 96 hours, qualitative via TLC), the “Production of sialyllactose in-vivo” value was 3′-SL. Further, the “Described activity confirmed in the lactose screening” value in assay [2] is “could be confirmed”.

B3: SiaT3: sialyltransferase of Campylobacter jejuni strain OH4384, acc. AX934425, SEQ ID NO: 12 (protein, listed as Campylobacter jejuni)
chain: MGKKVIIAGNGPSLKEIDYSRLPNDFDVFRCNQFYFEDKYYLGKKCKAVFYNPILFFEQYYTLKHLIQNQEYETELIMCSNYNQAHLENENFVKTFYDYFPDAHLGYDFFKQLKDFNAYFKFHEIYFNQRITSGVYMCAVAIALGYKEIYLSGIDFYQNGSSYAFDTKQKNLLKLAPNFKNDNSHYIGHSKNTDIKALEFLEKTYKIKLYCLCPNSLLANFIELAPNLNSNFIIQEKNNYTKDILIPSSEAYGKFSKNIN
Regarding B3, the “Relative efficacy … LST-a” value in assay [1] was 605.

B4: SiaT4: sialyltransferase of Helicobacter acinonychis, acc. NC_008229, SEQ ID NO: 11 (protein, listed as Heliobacter acinonychis)
chain: MNKKPLIIAGNGPSIKDLDYALFPKDFDVFRCNQFYFEDKYYLGREIKGVFFNAHVFDLQMKITKAIVKNGEYHPDHIYCTHVEPYGYVNGNQQLMQEYLEKHFVGVRSTYAYLKDLEPFFILHSKYRNFYDQHFTTGIMMLLVAIQLGYKEIYLCGIDFYENGFGHFYENQGGFFEEDSDPMHDKNIDIQALELAKKYAKIYALVPNSALVKMIPLSSQKGVLEKVKDRIGLGEFKREKFGQKELERQKELERQKELERQKELERQKELERQKELERQKELERQKELERQKELERQKELERQKELERQKELERQKELERQKELERQKELERQKELELERSLKARLKAVLASKGIRGDNLIIVSLKDTYRLFKGGFALLLDLKALKSIIKAFLKR
With B4, the “Relative efficacy … LST-a” value in assay [1] was 654.

B5: SiaT11: sialyltransferase of Photobacterium damselae JT0160, acc. BAA25316, SEQ ID NO: 31 (protein, listed as Photobacterium damsela)
chain: MKKILTVLSIFILSACNSDNTSLKETVSSNSADVVETETYQLTPIDAPSSFLSHSWEQTCGTPILNESDKQAISFDFVAPELKQDEKYCFTFKGITGDHRYITNTTLTVVAPTLEVYIDHASLPSLQQLIHIIQAKDEYPSNQRFVSWKRVTVDADNANKLNIHTYPLKGNNTSPEMVAAIDEYAQSKNRLNIEFYTNTAHVFNNLPPIIQPLYNNEKVKISHISLYDDGSSEYVSLYQWKDTPNKIETLEGEVSLLANYLAGTSPDAPKGMGNRYNWHKLYDTDYYFLREDYLDVEANLHDLRDYLGSSAKQMPWDEFAKLSDSQQTLFLDIVGFDKEQLQQQYSQSPLPNFIFTGTTTWAGGETKEYYAQQQVNVINNAINETSPYYLGKDYDLFFKGHPAGGVINDIILGSFPDMINIPAKISFEVLMMTDMLPDTVAGIASSLYFTIPADKVNFIVFTSSDTITDREEALKSPLVQVMLTLGIVKEKDVLFWADHKVNSMEVAIDEACTRIIAKRQPTASDLRLVIAIIKTITDLERIGDVAESIAKVALESFSNKQYNLLVSLESLGQHTVRMLHEVLDAFARMDVKAAIEVYQEDDRIDQEYESIVRQLMAHMMEDPSSIPNVMKVMWAARSIERVGDRCQNICEYIIYFVKGKDVRHTKPDDFGTMLD
As for B5, the “Relative efficacy of sialyltransferases regarding in-vitro production of sialyllacto-N-tetraoses: LST-b” value in assay [1] is recorded as 13. In addition, the “Described activity confirmed in the lactose screening” value in assay [2] is reported as “could be confirmed”.

B6: SiaT7: sialyltransferase of Pasteurella dagmatis strain DSM 22969, acc. AFY98851, SEQ ID NO: 7 (protein, listed as Pasteurella dagmatis)
chain: MTIYLDPASLPTLNQLMHFTKESEDKETARIFGFSRFKLPEKITEQYNNIHFVEIKNNRPTEDIFTILDQYPEKLELDLHLNIAHSIQLFHPILQYRFKHPDRISIKSLNLYDDGTMEYVDLEKEENKDIKSAIKKAEKQLSDYLLTGKINFDNPTLARYVWQSQYPVKYHFLSTEYFEKAEFLQPLKTYLAGKYQKMDWSAYEKLSPEQQTFYLKLVGFSDETKQLFHTEQTKFIFTGTTTWEGNTDIREYYAKQQLNLLKHFTHSEGDLFIGDQYKIYFKGHPRGGDINDYILKHAKDITNIPANISFEILMMTGLLPDKVGGVASSLYFSLPKEKISHIIFTSNKKIKNKEDALNDPYVRVMLRLGMIDKSQIIFWDSLKQL
As to B6, the “Relative efficacy … LST-a” value in assay [1] is recorded as 2.25 × 10^3.
